From patent CN111153994A (WUHAN ABEX BIOTECHNOLOGY CO LTD, dated 2020)

Molecular target: T1, 人TNFα蛋白 (人肿瘤坏死因子) (human, UniProt P01375 77-233)
T1 construct: also called human TNFα
Test: ELISA: human TNFα coated on the plate, serially diluted FC9 as primary antibody, HRP goat anti-human IgG-Fc as secondary

T1 sequence (P01375 77-233 limits assumed): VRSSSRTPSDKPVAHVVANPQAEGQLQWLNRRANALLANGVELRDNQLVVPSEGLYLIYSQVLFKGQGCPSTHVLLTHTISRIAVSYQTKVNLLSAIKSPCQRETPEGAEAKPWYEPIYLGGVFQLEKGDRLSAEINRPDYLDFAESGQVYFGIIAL

B1: FC9抗体 (针对人肿瘤坏死因子的人源单克隆抗体) (antibody, human IgG1, kappa, V domains shown)
VH: QLVQSGAEVKKPGASVKVSCKASGYTFTSYYMHWVRQAPGQGLEWMGIINPSGGSTSYAQKFQGRVTMTRDTSTSTVYMELSSLRSEDTAVYYCASFDYWGQGTLVTVSS
VL: EIVLTQSPGTLSLSPGERATLSCRTSQSVSSSYLAWYQQKPGQAPRLLIYGASSRATGIPDRFSGSGSGTDFTLTISRLEPEDFAVYFCQQFGTSSITFGQGTRLEIKR
notes: Point mutant of FC0 in an aggregation-prone region of the heavy chain; Expressed in 293F cells from pVitro2-neo-mcs, purified on Protein A and detected with anti-human IgG-Fc; also called FC9 antibody
Question: Which EC50 does the source give for B1 here?
Answer: The EC50 was roughly 400 pM.
